Experimental data from publication PMC7697101.
No end group written: not given here.

Target: formyl peptide receptor 2 (Fpr2/ALX), murine (mouse (endogenous in C57BL/6 and STM mice)) (UniProt O88536)
Sequence of UniProt O88536 (O88536 whole entry): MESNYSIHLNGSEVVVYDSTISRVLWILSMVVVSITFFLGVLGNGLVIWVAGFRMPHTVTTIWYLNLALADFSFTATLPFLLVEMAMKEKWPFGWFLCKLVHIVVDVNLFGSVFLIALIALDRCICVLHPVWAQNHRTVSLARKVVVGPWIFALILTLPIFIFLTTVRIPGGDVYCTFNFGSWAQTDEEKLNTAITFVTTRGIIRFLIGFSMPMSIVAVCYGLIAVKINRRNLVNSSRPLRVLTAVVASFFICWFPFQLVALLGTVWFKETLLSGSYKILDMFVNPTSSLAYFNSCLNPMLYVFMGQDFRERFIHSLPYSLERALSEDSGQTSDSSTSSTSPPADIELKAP

- increase in blood flow (cessation time) in cerebral venules of sickle cell transgenic mice given AnxA1 (Ac2-26) 4 mg/kg vs. saline, light/dye thrombosis; mitigated by co-administration of Boc2 or WRW4: 63.5%
Binder: Ac-AMVSEFLKQAWFIENEEQEYVQTVK [AnxA1 mimetic peptide AnxA1_(Ac2-26)]
